Assay results: patent US20220120736A1, “METHODS AND ASSAYS FOR MODULATING GENE TRANSCRIPTION BY MODULATING CONDENSATES” (Whitehead Institute for Biomedical Research, priority 2018, published 2022)
Where no end group is shown, it is not given here.

Tests used:
[1] = In vitro homotypic droplet formation assay; format: physicochemical
Experimental: Slides were then imaged on the Andor Revolution Spinning Disk Confocal using a 100× objective.
The CDK8-Mediator samples were purified as described (Meyer et al., 2008) with modifications. Prior to affinity purification, the P0.5M/QFT fraction was concentrated, to 12 mg/mL, by ammonium sulfate precipitation (35%). […] Affinity purification was carried out as described (Meyer et al., 2008), eluted material was loaded onto a 2.2 mL centrifuge tube containing 2 mL 0.15M KCl HEMG (20 mM HEPES, 0.1 mM EDTA, 2 mM MgCl2, 10% glycerol) and centrifuged at 50K RPM for 4 h at 4° C. This served to remove excess free GST-SREBP and to concentrate the CDK8-Mediator in the final fraction. Prior to droplet assays, purified CDK8-Mediator was concentrated using Microcon-30 kDa Centrifugal Filter Unit with Ultracel-30 membrane (Millipore MRCFOR030) to reach ˜300 nM of Mediator complex. Concentrated CDK8-Mediator was added to the droplet assay to a final concentration of ˜200 nM with or without 10 μM indicated GFP-tagged protein. Droplet reactions contained 10% PEG-8000 and 140 mM salt.
Proteins were stored in 10% glycerol, 50 mM Tris-HCl pH 7.5, 500 mM NaCl, 1 mM DTT. Amicon Ultra Centrifugal filters (30K or 50K MWCO, Millipore) were used to concentrate proteins to desired concentrations. […] Droplet assays were performed in 8-tube PCR strip. […]

MED1-GFP condensates = experiment: FRAP of MED1-GFP condensates in mESCs; format: cell-based, mouse; settings: ectopic expression in mESCs, untreated
Experimental: ATP depletion: Cells were cultured for 2 hours in glucose-free DMEM (Gibco, 11966025) supplemented with 0.5× B27 supplement and 0.5× N2 supplement followed by incubation with 5 mM 2-deoxy-glucose (Sigma, D6134) and 126 nM Oligomycin (Sigma, 75351) for 2 hours. Cellular ATP levels were measured using a bioluminescence assay (Invitrogen, A22066) following manufacturer's instructions. Cells expressing fluorescently tagged proteins were imaged ever 1 s for 20 s at a 100× objective on the Andor Revolution Spinning Disk Confocal, […] system and Metamorph acquisition software (W.M. Keck Microscopy Facility, MIT). One or two images were pre-bleach and on then approximately 0.5 μm^2 was bleached with the 488 nm laser of the quantifiable laser module (QLM). FRAP was performed on selecting region of interest with 5 pulses of 20 μs each. For FRAP analysis, florescence recovery was measured as fluorescence intensity of photobleached area normalized to the intensity of the unbleached area or the entire nucleus. Fluorescence intensity was measured with FIJI FRAP profiler plugin (code written by Jeff […], adapted from Tony Collins' Macbiophotonics plugins, available here: //worms.zoology.wisc.edu/research/4d/4d.html

MED1-IDR droplets = biological target: T1, MED1-IDR droplets (Homo sapiens, UniProt Q15648); experiment: In vitro droplet assay, TMR-labeled decapeptides with MED1-IDR-GFP; format: biochemical; settings: 10 uM each, 125 mM NaCl, 10% PEG-8000
T1 construct: pETEC-MED1-IDR-GFP; Sabari et al., 2018; 948-1574; 6xHis (N); made in house; host or cells: E. coli LOBSTR
Experimental: Recombinant GFP or mCherry fusion proteins were concentrated and desalted to an appropriate protein concentration and 125 mM NaCl using Amicon Ultra centrifugal filters (30K MWCO, Millipore). Recombinant proteins were added to solutions at varying concentrations with indicated final salt and 10% PEG-8000 as crowding agent in Droplet Formation Buffer (50 mM Tris-HCl pH 7.5, 10% glycerol, 1 mM DTT). The protein solution was immediately loaded onto a homemade chamber comprising a glass slide with a coverslip attached by two parallel strips of double-sided tape. Slides were then imaged with an Andor confocal microscope with a 150× objective. Unless indicated, images presented are of droplets settled on the glass coverslip. For experiments with fluorescently labeled polypeptides, the indicated decapeptides were synthesized by the Koch Institute/MIT Biopolymers & Proteomics Core Facility with a TMR fluorescent tag. The protein of interest was added Buffer D with 125 mM NaCl and 10% Peg-8000 with the indicated polypeptide and imaged as described above. For FRAP of in vitro droplets 5 pulses of laser at a 50 us dwell time was applied to the droplet, and recovery was imaged on an Andor microscope every is for the indicated time periods. […] One microliter of this concentrated stock was used in a 10 uL droplet formation reaction to achieve a final concentration of 10 uM.

MED1-IDR-mCherry = biological target: T2, MED1-IDR-mCherry (human, UniProt Q15648 948-1574); experiment: in vitro droplet assay, 10 uM each, 125 mM NaCl, 10% PEG-8000
T2 construct: Recombinant from E. coli; Lacks the LXXLL motifs; also called mCherry-MED1-IDR

HCT116 cells = experiment: FRAP of endogenously tagged mEGFP-β-catenin in HCT116 cells; format: cell-based; settings: nuclear puncta, constitutive WNT-activated HCT116 cells
Experimental: FRAP was performed on LSM880 Airyscan microscope with 488 nm laser. Bleaching was performed over a rbleach≈1 um using 100% laser power and images were collected every two seconds. Fluorescence intensity was measured using FIJI. Background intensity was subtracted and values are reported relative to pre-bleaching time points.
Custom MATLAB™ scripts were written to process the intensity data, accounting for background photobleaching and normalization to pre-bleach intensity. Post bleach FRAP recovery data was averaged over 9 replicates for each cell-line and condition.

MED1-IDR-GFP = biological target: T3, MED1-IDR-GFP (human, UniProt Q15648 948-1574); experiment: in vitro droplet assay with TMR-labeled decapeptide, 125 mM NaCl, 10% PEG-8000
T3 construct: Recombinant from E. coli
Text: All 17 acidic residues in the N-AD and 6 acidic residues in the C-AD were mutated to alanine to generate an OCT4-acidic mutant.

GCN4: purified recombinant yeast GCN4-GFP
concentration at which micron-sized droplets form alone ([1]; 125 mM NaCl, 10% PEG-8000): 40 µM

MED1-GFP: full-length human MED1 fused to mEGFP, ectopically expressed in mESCs
apparent diffusion coefficient (MED1-GFP condensates): 0.36±0.13 μm2/s

Poly-E: TMR labeled glutamic acid decapeptide
incorporation of TMR labeled decapeptide into MED1-IDR droplets (MED1-IDR droplets): incorporated into MED1-IDR droplets
incorporation of TMR labeled decapeptide into MED1-IDR droplets (MED1-IDR droplets; listed as glutamic acid peptides): concentrated within

Poly-P: TMR labeled proline decapeptide (PPPPPPPPPP; also: TMR labeled, site not given here)
incorporation of TMR labeled decapeptide into MED1-IDR droplets (MED1-IDR droplets): not incorporated into MED1-IDR droplets

B1: ER-GFP (receptor, not shown: large carriers; small tags and cut ends)
chain: MTMTLHTKASGMALLHQIQGNELEPLNRPQLKIPLERPLGEVYLDSSKPAVYNYPEGAAYEFNAAAAANAQVYGQTGLPYGPGSEAAAFGSNGLGGFPPLNSVSPSPLMLLHPPPQLSPFLQPHGQQVPYYLENEPSGYTVREAGPPAFYRPNSDNRRQGGRERLASTNDKGSMAMESAKETRYCAVCNDYASGYHYGVWSCEGCKAFFKRSIQGHNDYMCPATNQCTIDKNRRKSCQACRLRKCYEVGMMKGGIRKDRRGGRMLKHKRQRDDGEGRGEVGSAGDMRAANLWPSPLMIKRSKKNSLALSLTADQMVSALLDAEPPILYSEYDPTRPFSEASMMGLLTNLADRELVHMINWAKRVPGFVDLTLHDQVHLLECAWLEILMIGLVWRSMEHPGKLLFAPNLLLDRNQGKCVEGMVEIFDMLLATSSRFRMMNLQGEEFVCLKSIILLNSGVYTFLSSTLKSLEEKDHIHRVLDKITDTLIHLMAKAGLTLQQQHQRLAQLLLILSHIRHMSNKGMEHLYSMKCKNVVPLYDLLLEMLDAHRLHAPTSRGGASVEETDQSHLATAGSTSSHSLQKYYITGEAEGFPATV
notes: Tested without ligand, with estrogen (beta-estradiol) and with tamoxifen (4-hydroxytamoxifen); also called estrogen receptor; GFP labeled ER
binding result (MED1-IDR-mCherry): binds

B2: MED1-IDR: recombinant GFP fusion of the MED1 intrinsically disordered region (948-1574) (protein)
chain: EHHSGSQGPLLTTGDLGKEKTQKRVKEGNGTSNSTLSGPGLDSKPGKRSRTPSNDGKSKDKPPKRKKADTEGKSPSHSSSNRPFTPPTSTGGSKSPGSAGRSQTPPGVATPPIPKITIQIPKGTVMVGKPSSHSQYTSSGSVSSSGSKSHHSHSSSSSSSASTSGKMKSSKSEGSSSSKLSSSMYSSQGSSGSSQSKNSSQSGGKPGSSPITKHGLSSGSSSTKMKPQGKPSSLMNPSLSKPNISPSHSRPPGGSDKLASPMKPVPGTPPSSKAKSPISSGSGGSHMSGTSSSSGMKSSSGLGSSGSLSQKTPPSSNSCTASSSSFSSSGSSMSSSQNQHGSSKGKSPSRNKKPSLTAVIDKLKHGVVTSGPGGEDPLDGQMGVSTNSSSHPMSSKHNMSGGEFQGKREKSDKDKSKVSTSGSSVDSSKKTSESKNVGSTGVAKIIISKHDGGSPSIKAKVTLQKPGESSGEGLRPQMASSKNYGSPLISGSTPKHERGSPSHSKSPAYTPQNLDSESESGSSIAEKSYQNSPSSDDGIRPLPEYSTEKHKKHKKEKKKVKDKDRDRDRDKDRDKKKSHSIKPESWSKSPISSDQSLSMTSNTILSADRPSRLSPDFMIGEEDDDLM
modifications: left off: large carriers; small tags and cut ends
lowest concentration tested, at which droplets were observed ([1]; droplet formation buffer with 10% PEG-8000, range tested 0.6 to 20 μM): 0.6 µM

B3: β-catenin: mEGFP-tagged β-catenin at the endogenous locus in HCT116 cells (protein)
chain: ATQADLMELDMAMEPDRKAAVSHWQQQSYLDSGIHSGATTTAPSLSGKGNPEEEDVDTSQVLYEWEQGFSQSFTQEQVADIDGQYAMTRAQRVRAAMFPETLDEGMQIPSTQFDAAHPTNVQRLAEPSQMLKHAVVNLINYQDDAELATRAIPELTKLLNDEDQVVVNKAAVMVHQLSKKEASRHAIMRSPQMVSAIVRTMQNTNDVETARCTAGTLHNLSHHREGLLAIFKSGGIPALVKMLGSPVDSVLFYAITTLHNLLLHQEGAKMAVRLAGGLQKMVALLNKTNVKFLAITTDCLQILAYGNQESKLIILASGGPQALVNIMRTYTYEKLLWTTSRVLKVLSVCSSNKPAIVEAGGMQALGLHLTDPSQRLVQNCLWTLRNLSDAATKQEGMEGLLGTLVQLLGSDDINVVTCAAGILSNLTCNNYKNKMMVCQVGGIEALVRTVLRAGDREDITEPAICALRHLTSRHQEAEMAQNAVRLHYGLPVVVKLLHPPSHWPLIKATVGLIRNLALCPANHAPLREQGAIPRLVQLLVRAHQDTQRRTSMGGTQQQFVEGVRMEEIVEGCTGALHILARDVHNRIVIRGLNTIPLFVQLLYSPIENIQRVAAGVLCELAQDKEAAEAIEAEGATAPLTELLHSRNEGVATYAAAVLFRMSEDKPQDYKKRLSVELTSSLFRTEPMAWNETADLGLDIGAQGEPLGYRQDDPSYRSFHSGGYGQDALGMDPMMEHEMGGHHPGADYPVDGLPDLGHAQDLMDGLPPGDSNQLAWFDTDL
modifications: left off: large carriers; small tags and cut ends
notes: mEGFP-tagged β-catenin at the endogenous locus in HCT116 cells
approximate apparent diffusion coefficient (HCT116 cells): ~0.004±0.003 μm^2/s

PPPPPPPPPP (also: TMR fluorescent tag, site not given here, also called proline decapeptide) [TMR-Poly-P Peptide]
binding result (MED1-IDR-GFP): no binding (tested: 10 uM)
